Data set [1] addresses T1, PTEN (endogenous, human tissue sections) (human, UniProt P60484 1-403). The experiment in a line: histochemistry (avidin-biotin peroxidase); normal endometrium; TKT buffer; Fixed tissue sections; 5 uM aptamer in TKT (25 mM Tris-HCl pH 8, 20 mM KCl, 200 mM NaCl, 0.05% Triton X-100, 0.1% DMSO), 100 uM hemin for DNAzyme constructs, BSA; 3 h at room temperature or overnight at 4 C (25 C overnight also stated). Particulars: protein: native; label: 5' biotin; stem-loop; 13 nt reverse-complementary primer regions form the stem.

For data set [2], the target named is T1, PTEN (endogenous, human tissue sections). The experiment in a line: histochemistry (PS2.M peroxidase, DAB); hemin, K+; endometrium and colon; same scoring as MAb 6H2 in 60 samples; Fixed tissue sections; 5 uM aptamer in TKT (25 mM Tris-HCl pH 8, 20 mM KCl, 200 mM NaCl, 0.05% Triton X-100, 0.1% DMSO), 100 uM hemin for DNAzyme constructs, BSA; 3 h at room temperature or overnight at 4 C (25 C overnight also stated). Particulars: protein: native; 5' PS2.M G-quadruplex; stem linker removed.

T1 sequence (P60484 whole entry): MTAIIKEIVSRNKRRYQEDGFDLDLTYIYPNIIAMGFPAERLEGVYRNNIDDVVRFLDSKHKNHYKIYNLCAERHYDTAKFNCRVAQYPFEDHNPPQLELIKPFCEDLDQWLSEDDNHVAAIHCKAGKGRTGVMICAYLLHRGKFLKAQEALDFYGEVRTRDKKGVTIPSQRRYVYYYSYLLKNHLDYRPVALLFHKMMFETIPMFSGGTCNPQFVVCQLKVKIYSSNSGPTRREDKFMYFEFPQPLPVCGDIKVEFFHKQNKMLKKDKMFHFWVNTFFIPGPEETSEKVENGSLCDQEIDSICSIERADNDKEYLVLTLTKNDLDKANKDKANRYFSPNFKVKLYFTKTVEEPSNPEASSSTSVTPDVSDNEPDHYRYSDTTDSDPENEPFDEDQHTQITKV

B1: PTENz7-87-biotin (structured_DNA)
DNA: CGGAATTCCGAGCGTGGGCGTGGTCATACCGCGCCTATCGAACTCGCCACTCGCGTGCAGCTCTGTGTAGGTACGCCCACGCTCGAG
Turning to B1, the binding result in data set [1] is reported as “binds”.

B2: Dual aptazyme PTENz7-70 (structured_DNA)
DNA: GTGGGTAGGGCGGGTTGGCGGTCATACCGCGCCTATCGAACTCGCCACTCGCGTGCAGCTCTGTGTAGGT
Regarding B2, in data set [2], the binding result is on record as “binds”.

These data come from PMC7911190, “One Step Histological Detection and Staining of the PTEN Tumor Suppressor Protein by a Single Strand DNA”.
